Assays:
[1] = system: CCCCCCCCCC(=O)CC(=O)N[C@H]1CCOC1=O; experiment: purified protein; conditions: 25.0 °C
CCCCSC1CCC(=O)O1 = experiment: purified protein; conditions: pH 8.0; 25.0 °C

SacPox (Sulfolobus acidocaldarius DSM 639)
kcat/Km [1]: 1.62e+07 ± 2.2e+06 M⁻¹ s⁻¹
Km (CCCCSC1CCC(=O)O1): 24 ± 0.5 µM
kcat/Km (CCCCSC1CCC(=O)O1): 1.86e+06 ± 70000 M⁻¹ s⁻¹

SsoPox (Saccharolobus solfataricus P2)
Km (CCCCSC1CCC(=O)O1): 80 ± 3 µM
kcat/Km (CCCCSC1CCC(=O)O1): 360000 ± 10000 M⁻¹ s⁻¹

From paper PMC10707464
